The target in the assay is IgG1Δhinge fragment of IgG1-7D8-K409R (human). Kind of assay: native mass spectrometry; CH2-CH3 fragment mixed 24 h with the IgG1Δhinge fragment of IgG1-7D8-K409R (heterodimer).

B1: CH2-CH3 fragment of human IgG1 with F405L, P01857 224-330 (protein, UniProt P01857-1 224-330, looked up, name in EU numbering, not shown: small tags and cut ends)
chain: GQPREPQVYTLPPSRDELTKNQVSLTCLVKGFYPSDIAVEWESNGQPENNYKTTPPVLDSDGSFLLYSKLTVDKSRWQQGNVFSCSVMHEALHNHYTQKSLSLSPGK
As for B1, the Kd (usually the concentration at which binding is half-saturated) is 0.012 µM.

B2: CH2-CH3 fragment of human IgG1 with T350I-K370T-F405L, P01857 224-330 (protein, UniProt P01857-1 224-330, looked up, name in EU numbering, not shown: small tags and cut ends)
chain: GQPREPQVYILPPSRDELTKNQVSLTCLVTGFYPSDIAVEWESNGQPENNYKTTPPVLDSDGSFLLYSKLTVDKSRWQQGNVFSCSVMHEALHNHYTQKSLSLSPGK
For the molecule B2, the Kd was 0.017 µM.

For the origin of these results see US20170233497A1.
